# “Also recorded” adds a separate entry of the source.
# T1: DCLK1 isoform 4 purified protein (Homo sapiens, UniProt O15075)
# T1 sequence (O15075 1-433 isoform O15075-4): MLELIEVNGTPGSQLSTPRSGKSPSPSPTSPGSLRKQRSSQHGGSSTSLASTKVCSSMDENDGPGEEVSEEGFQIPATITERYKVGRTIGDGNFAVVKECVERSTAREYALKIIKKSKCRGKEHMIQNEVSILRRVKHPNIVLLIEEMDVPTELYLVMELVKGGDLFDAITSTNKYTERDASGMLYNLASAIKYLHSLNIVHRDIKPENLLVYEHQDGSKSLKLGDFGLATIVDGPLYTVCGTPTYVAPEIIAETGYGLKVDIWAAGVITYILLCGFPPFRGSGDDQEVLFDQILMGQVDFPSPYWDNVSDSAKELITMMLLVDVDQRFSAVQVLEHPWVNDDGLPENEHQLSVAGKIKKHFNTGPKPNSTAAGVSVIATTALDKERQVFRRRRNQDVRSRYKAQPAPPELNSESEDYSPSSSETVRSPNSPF
# B1: CBT-15G: Anti-DCLK1 mouse monoclonal antibody, Immunoglobulin G213 species, raised against immunogen no. 8; VH SEQ ID NO:24, VL SEQ ID NO:26 (antibody, V domains shown)
# VH: EVQLQQSGTALARPGASVKMSCKASGYSFTSYWMHWVKQRPGQGLEWIGAIYPGKSDTSYNQKFKGKAKLTAVTSASTAYMELSSLTNEDSAVYYCTRYGKGAMDYWGQGTSVTVSS
# VL: DIVLTQSHKFMSTSVGDRVTITCKASQDVNTAVAWYQKKPGQSPKLLIYWASTRLTGVPDRFTGSGSGTDYTLTISSVQAEDLALYYCQQHYSTPYTFGGGTKLEIK
# modifications: HC variable AA sequence of CBT-15G; LC variable AA sequence of CBT-15G
# Legend:
# [1] = system: Caki-2 cells overexpressing DCLK1; test: Proliferation/drug resistance assay (MTT), DCLK1-overexpressing cells; assay type: cell-based, human; settings: increasing drug concentrations; FIG. 16-17
# Description: This gBlock also contains a part of human DCLK1 isoform 1 sequence shared with isoform 2, with the addition of the unique DCLK1 isoform 2 C-terminal sequence (NCBI Reference Sequence: XM_005266592.2). The vector containing DCLK1 isoform 1 and the gBlock were digested with EcoRI and Scat Both digested vector and gBlock fragment were gel purified and DCLK1 isoform 2 was constructed by ligating the digested vector with the synthetic DNA fragment. The ligated cDNA product was confirmed by automatic sequencing. […] RCC cell line Caki-2 was infected with Lentivirus containing human DCLK1 cDNA sequence to overexpress DCLK1 Isoform 2/long-α (caki2-dsRed-DCLK1) or red fluorescent protein (RFP) cDNA as control (caki2-dsRed) and selected to 100% expression with puromycin.
# Cells (5000/well) were seeded into a 96-well tissue culture plate in quadruplicate. […] 48 or 72 h after incubation, 10 μL of MTT (RND Systems) was added to each well and cells were incubated at 37° C. for 4 h. […] In order to fully dissolve the precipitated MTT crystals, the plate was placed on a shaker at low speed for 1 min and a microplate reader was used to read the OD570 for each well.
# The high level of expression of vascular endothelial growth factor (VEGF) and its receptors in RCC supports its highly vascular nature making VEGF and its receptors therapeutic targets. […] Given the tight relationship between sternness and the response to targeted therapies and its importance in patient survival, we further investigated DCLK1's role in this process. Caki-2 cells overexpressing DCLK1 were seeded into 96-well plates, allowed to attach overnight, and then treated with increasing concentrations of sunitinib or sorafenib. Relative cell viability was then evaluated by MTT assay.
# The intracellular serine/threonine kinase mTOR is involved in a wide range of pathways and plays an essential role in cellular metabolism and cancer progression.
# [2] = system: ACHN cells; test: In vitro PBMC-killing assay (Caspase-3/7 Glo), renal cancer cells; assay type: cell-based; settings: antibody pretreatment, then 72 h co-culture with human PBMC; FIG. 24A
# Description: ACHN cells were seeded into a 96-well plate at 5×10^4 cells per well and allowed to attach overnight at 37° C. CBT-15 mAB or isotype control mAB were added to the ACHN wells at concentrations of 100 μg/mL in quadruplicate and incubated at 37° C. for 72 h. After mAB treatment, the media was replaced and 1.25×10^5 primary human PBMC cells (ATCC) were co-incubated with the ACHN cells for 72 h. Finally, luminescent CaspaseGlo® 3/7 activity (Promega) assay was performed according to the manufacturer's protocol as a surrogate measure of apoptosis.
# (§1) To further assess the functional relevance of these findings we seeded ACHN renal and AsPC-1 pancreatic cancer cells into 96 wells and subjected them to antibody-dependent cell-mediated cytotoxicity assay. Briefly, 10^4 cancer cells were seeded into each well after 48 hours pretreatment with either isotype control or CBT-15 monoclonal antibody. Human peripheral blood […] were then seeded into each well at 10^5 cells per well and co-cultured for 72 h. After 72 h Caspase-3/7 Glo assay was performed to assess apoptosis.
# [3] = system: AsPC-1 pancreatic cancer cells; test: In vitro PBMC-killing assay (Caspase-3/7 Glo), pancreatic cancer cells; assay type: cell-based; settings: 48 h antibody pretreatment, then 72 h co-culture with human PBMC; FIG. 24B
# Description: as §1
# [4] = system: pancreatic cancer SW1990 tumor xenograft; test: SW1990 xenograft tumor study; assay type: in vivo, mice; settings: 25 mg/kg biweekly
# Description: 0.5×10^6 cells were injected into the flanks of 8 week-old athymic nude mice and the resulting tumors were allowed to grow to an average volume 100 mm^3. Upon reaching this volume we began delivering CBT-15 or isotype control mAB at 25 mg/kg biweekly. Tumor volume measurements were taken approximately every other day. At the end of 4 weeks from the start of injections animals were culled and tumors were excised, measured, and weighed.
# [5] = target: T1, DCLK1 isoform 4 purified protein; test: Western blotting against purified DCLK1 protein; assay type: binding; settings: FIG. 1
# Description: Lysates from ACHN or CAKI2 cells were subjected to Western blot analysis. The concentration of total proteins was determined by BCA protein assay (Pierce, Rockford, Ill.). 40 μg of protein lysates were size separated on a 4%-20% SDS polyacrylamide gel and transferred onto a PVDF membrane. The membrane was blocked in 1% caseine for 30 minutes and probed with primary antibody α-DCLK1 (ABCAM, ab31704), HIF-1α (ABCAM, ab2185), Vimentin (Santa Cruz, S.C.-7557), ALDH1A1 (ABCAM, ab52492), β-Actin (ABCAM, ab8226) overnight at 4° C. The membrane was then washed 3 times with TBST and probed with species-appropriate secondary antibody (cw800-conjugated) for 30 mins at room temperature protected from light. Finally, proteins were detected using a LICOR Odyssey Infrared Imager and density quantification was performed in Image Studio Lite (LICOR) where appropriate.
# The resulting monoclonal antibodies produced from this screening process included an Immunoglobulin A species (CBT-15A) and an Immunoglobulin G213 species (CBT-15G). Following purification of the resulting antibodies, their affinity for DCLK1 was confirmed by Western blotting against DCLK1 isoform 4 purified protein (FIG. 1). […] The ability of these antibodies to bind extracellular DCLK1 was further apparent in FACS sorting experiments. […]
molecule,measurement,setting,value
CO[C@H]1C[C@@H]2CC[C@@H](C)[C@@](O)(O2)C(=O)C(=O)N2CCCC[C@H]2C(=O)O[C@H]([C@H](C)C[C@@H]2CC[C@@H](OCCO)[C@H](OC)C2)CC(=O)[C@H](C)/C=C(\C)[C@@H](O)[C@@H](OC)C(=O)[C@H](C)C[C@H](C)/C=C/C=C/C=C/1C [everolimus],"sensitivity of DCLK1-overexpressing cells to the drug compared to dsRed vector control cells (relative cell viability, MTT)",[1],significantly decreases sensitivity
CNC(=O)c1cc(Oc2ccc(NC(=O)Nc3ccc(Cl)c(C(F)(F)F)c3)cc2)ccn1 [sorafenib],"sensitivity of DCLK1-overexpressing cells to the drug compared to dsRed vector control cells (relative cell viability, MTT)",[1],did not elicit significant resistance; also recorded: not resistant
CO[C@H]1C[C@@H]2CC[C@@H](C)[C@@](O)(O2)C(=O)C(=O)N2CCCC[C@H]2C(=O)O[C@H]([C@H](C)C[C@@H]2CC[C@@H](OC(=O)C(C)(CO)CO)[C@H](OC)C2)CC(=O)[C@H](C)/C=C(\C)[C@@H](O)[C@@H](OC)C(=O)[C@H](C)C[C@H](C)/C=C/C=C/C=C/1C [temsirolimus],"sensitivity of DCLK1-overexpressing cells to the drug compared to dsRed vector control cells (relative cell viability, MTT)",[1],significantly decreases sensitivity
B1,"PBMC mediated apoptosis, Caspase-3/7 activity relative to isotype control",[2],can sensitize
same,"immune cell mediated cell killing, Caspase-3/7 activity relative to isotype control",[3],significantly increased; also recorded: increase
same,excised tumor volume vs isotype mAB,"[4]; end of treatment, FIG. 29, 32",significant decrease
same,excised tumor weight vs isotype mAB,"[4]; end of treatment, FIG. 30, 33",decrease
same,xenograft tumor growth (tumor volume over time) vs isotype mAB,"[4]; athymic nude mice, 4 weeks, FIG. 28, 31, 25 mg/kg",strongly inhibited; also recorded: substantially reduced
same,affinity for DCLK1 by Western blot (detection of purified DCLK1 protein),[5],confirmed; also recorded: detect
